Laboratory results reported in paper PMC6525112, “Vitamin D (1,25(OH)2D3) induces α-1-antitrypsin synthesis by CD4^+ T cells, which is required for 1,25(OH)2D3-driven IL-10” (The Journal of Steroid Biochemistry and Molecular Biology, 2019).

What was measured:
[1] = target: T1, NT-647 labelled recombinant α-1-antitrypsin (human, UniProt P01009 25-418, NT-647 label); test: MST; Monolith NT.115, LED 70%, MST power 20%; 0.5 μM NT-647 labelled α-1-antitrypsin incubated 30 min with C3a at 6 nM to 205 μM; conditions: both partners purified
T1 construct: alpha-1-antitrypsin, human, recombinant from E. coli (not glycosylated); In the functional row the recombinant protein was used without the label; also called NT-647 labeled AAT; source: E. coli recombinant system, purified in-house

[2] = target: T2, α-1-antitrypsin (analyte of the SPR assay) (human, UniProt P01009 25-418); test: SPR; Biacore T200; biotinylated C3a immobilised by amine coupling on CM5 chip (800-1500 RU); serially diluted α-1-antitrypsin injected at 10 μl/minute in Dulbecco's PBS; regeneration 2.0 M KCl; blank surface subtracted; conditions: both partners purified
T2 construct: alpha-1-antitrypsin, human; May be the same preparation as m1 or the unlabelled form of m2; also called AAT
T2 sequence (P01009 25-418): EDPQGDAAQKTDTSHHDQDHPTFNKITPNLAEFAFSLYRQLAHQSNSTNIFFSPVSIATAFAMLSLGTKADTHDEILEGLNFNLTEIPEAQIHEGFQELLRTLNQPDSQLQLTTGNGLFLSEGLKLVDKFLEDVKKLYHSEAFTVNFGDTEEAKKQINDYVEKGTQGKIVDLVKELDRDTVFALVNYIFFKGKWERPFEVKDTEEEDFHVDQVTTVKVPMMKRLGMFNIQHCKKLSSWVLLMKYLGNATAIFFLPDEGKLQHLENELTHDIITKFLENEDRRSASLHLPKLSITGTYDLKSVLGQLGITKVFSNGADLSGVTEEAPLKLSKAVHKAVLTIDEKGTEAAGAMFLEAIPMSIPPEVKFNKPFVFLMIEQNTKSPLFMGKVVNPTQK

T1 sequence (P01009 25-418): as above
C3a, sequence (P01024 672-748): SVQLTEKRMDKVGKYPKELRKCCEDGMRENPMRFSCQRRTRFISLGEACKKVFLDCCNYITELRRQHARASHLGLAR

Binder	Kd [1] [µM]	Kd [2] [µM]
C3a (natural protein, C3a anaphylatoxin, the cut product of complement C3; also called complement C3a; complement anaphylatoxin C3a; source: bought: Complement Technology, Inc) not shown	8.4	
Biotinylated-C3a (natural protein, biotin (biotinamidohexanoic acid 3-sulfo-N-hydroxysuccinimide ester, random, no more than one biotin per molecule of C3a), C3a anaphylatoxin, the cut product of complement C3; also called randomly biotinylated C3a; complement C3a; source: bought: Complement Technology Inc; biotinylated in-house) not shown		7.53
